According to patent publication US20220054588A1, “USE OF SAP FOR THE TREATMENT OF EUROTIOMYCETES FUNGI INFECTIONS” (HUMANITAS MIRASOLE S.P.A., priority 2018, published 2022):

B1: murine PTX3: Recombinant murine PTX3 purified from Chinese hamster ovary cells (protein)
chain: ETSDDYELMYVNLDNEIDNGLHPTEDPTPCDCRQEHSEWDKLFIMLENSQMREGMLLQATDDVLRGELQRLRAELGRLAGGMARPCAAGGPADARLVRALEPLLQESRDASLRLARLEDAEARRPEATVPGLGAVLEELRRTRADLSAVQSWVARHWLPAGCETAIFFPMRSKKIFGSVHPVRPMKLESFSTCIWVKATDVLNKTILFSYGTKWNPYEIQLYLSSQSLVLVVGGKENKLAADTVVSLGRWSHLCGTWSSEQGSMSLWANGELVATTVEMAKSHSVPEGGLLQIGQEKNGCCVGGGFDESLAFSGRITGFNIWDRVLSEEEIRASGGVESCHIRGNVVGWGVTEIQAHGGAQYVS
B2: SAP: Serum Amyloid P component, species not printed at the place; murine Sap per legend b89 for b91, unstated for b97 (protein, UniProt P12246 21-224, looked up)
Serum amyloid P-component: QTDLKRKVFVFPRESETDHVKLIPHLEKPLQNFTLCFRTYSDLSRSQSLFSYSVKGRDNELLIYKEKVGEYSLYIGQSKVTVRGMEEYLSPVHLCTTWESSSGIVEFWVNGKPWVKKSLQREYTVKAPPSIVLGQEQDNYGGGFQRSQSFVGEFSDLYMWDYVLTPQDILFVYRDSPVNPNILNWQALNYEINGYVVIRPRVWD

Columns and labels:
A. fumigatus conidia = test: FACS binding of biotin-conjugated murine SAP to A. fumigatus conidia, with competition; design: species or system Aspergillus fumigatus; details: Sap 0.1-10 μg/ml; Ptx3 50 μg/ml; anti-Sap monoclonal antibody detection
Procedure: FIG. 1 depicts the interaction of SAP with A. fumigatus conidia in mice. a) induction of SAP circulating levels after i.t. injection of 5×10^7 A. fumigatus (AF) conidia; LPS, 0.8 mg/Kg. Mean±SD. c) FACS analysis of binding of biotin-conjugated (b-) murine SAP (Sap; 10 μg/ml) to viable dormant or germinating conidia of AF (1×10^8). Human SAP (50 μg/ml) and CRP (50 μg/ml) were also used. Mean±SD of one quadruplicate experiment of two performed.
FIG. 10 depicts the susceptibility to A. fumigatus associated with single or double deficiency for SAP and PTX3. a and b, survival of wt and Apcs^−/−, Ptx3^−/− and Apcs^−/−, Ptx3^−/− mice after i.t. injection of 1×10^8 (a) or 5×10^7 (b) conidia. a, wt, n=9 (a, b); n=9 (a, b); Ptx3^−/−, n=7 (a) or n=10 (b); Ptx3^−/−, n=5 (a) or n=12 (b). a, b, P<0.05, wt vs. Apcs^−/− P<0.01 wt vs. Apcs^−/−, Ptx3^−/−; P=0.06, Apcs^−/−, Ptx3^−/− vs. Ptx3^−/− (Mantel-Cox test). a) Curves of wt and Apcs^−/− refer to the same ones shown in FIG. 2a-c FACS analysis of Sap (range from 0.1 to 10 μg/ml) binding to viable AF conidia (1×10^8) in presence of Ptx3 (50 μg/ml). An anti-Sap monoclonal antibody (non-reactive to Ptx3) was used. Mean±SD of a triplicate. **, P<0.01;***, P<0.005;****, P<0.0001 (unpaired t-test).
Binding of SAP. Conidia of A. fumigatus and A. flavus (1×10^8 CFU) were cultured 4 and 16 h under static condition in Sabouraud medium to respectively allow conidia swelling and germination. Blastospores and yeast of Candida albicans were prepared as previously described (Santus et al., 2017). Yeast (8×10^6/ml) were incubated at 37° C. for hyphal induction. Formation of hyphae was evaluated under a microscope at different time points until its amount was assessed at 95%. […] After extensive washing, samples were incubated (30 min, r. t.) with Alexa Fluor® 647-conjugated streptavidin and binding was evaluated by FACS as frequency and MFI and visualized by confocal microscopy as described. […]

[1] = tested on: neutrophils in whole blood; test: Whole blood phagocytosis of A. fumigatus conidia by mouse neutrophils (FACS), with CD11b expression; assay type: cell-based, mice; details: SAP pre-opsonised conidia; for phagocytosis by neutrophils: 1 and 20 min
Procedure: FIGS. 7a and 7b depict the effect of SAP on A. fumigatus phagocytosis by neutrophils. a), b), FACS analysis (out of 3 performed) of phagocytosis (a) and CD11b internalization (b) in neutrophils after challenge with fluorescein-labelled AF conidia (5×10^6/100 μl of blood) opsonized or not with Sap is shown. a) neutrophil phagocytosis in whole blood of wt and Apcs^−/− mice. b) CD11b expression in neutrophils of a. a) and b) Mean±SEM;*, P<0.05;**, P<0.01;***, P<0.005;****, P<0.0005 (unpaired t-test).
FIG. 7c depicts the effect of human SAP on phagocytic activity. FACS analysis of neutrophil phagocytosis in blood of wt and Apcs^−/− mice after exposure with fluorescein-labelled AF conidia (5×10^6/100 μl of blood) opsonized or not with SAP. Figure refers to 2 experiments performed.***, P<0.005;***, P<0.0005 (unpaired t-test).
Cells and in vitro phagocytic activity. Phagocytosis assay in whole blood of A. fumigatus conidia by mouse and human neutrophils was performed as described (Moalli et al., 2010). Briefly, conidia (1×10^9) were labelled (1 h, r.t.) with FITC (Sigma-Aldrich; 5 mg/ml in DMSO), and eventually opsonized (1 h, r.t) with murine SAP (100 μg/ml; […]) and PTX3 (50 μg/ml; 1.1 μM). An amount of 1×10^7 FITC-conidia were added to 200 μl of mouse whole blood (collected with heparin) and incubated for 1, 5, 10, 20 or 30 min at 37° C. in an orbital shaker. Samples were immediately placed on ice and ACK lysis solution was added to lyse erythrocytes. Murine neutrophils were analysed by BD FACS Canto™ II Flow Cytometer (BD Biosciences) as previously described, and frequency and/or mean fluorescence intensity (MFI) of FITC neutrophils and CD11b expression were reported.

U937 cells = test: Phagocytosis of A. fumigatus conidia by U937 cells overexpressing DC-SIGN; assay type: cell-based, human; details: U937 stably transfected for DC-SIGN and control cells
Source text: FIG. 9 depicts how SAP effect on phagocytosis is independent from its interaction with DC-SIGN. a) detection of DC-SIGN expression in transfected U937 cells by FACS. Untransfected cells and an irrelevant IgG were used as control. Mean±SD of a quadruplicate experiment is shown. b) FACS analysis of fluorescein-labelled AF conidia (1×10^7) phagocytosis by U937 cells (1×10^5) overexpressing DC-SIGN.
U937 cell lines [control (ATCC® CRL-1593.2™) and transduced with human DC-SIGN (ATCC® CRL-3253™)] were cultured in RPMI-1640 medium containing 5% FCS, 2 mM L-glutamine, 0.1 mM non-essential amino acids (all from Lonza-BioWhittaker™) and 0.05 mM 2-mercaptoethanol (BIO-RAD). DC-SIGN expression was ascertained by FACS using a rabbit polyclonal Ab (#ab5715, 5 μg/ml; AbCam, UK) and an Alexa Fluor® 488-conjugated goat anti rabbit (2 μg/ml; ThermoFisher-Molecular Probes). Phagocytosis of FITC-labelled A. fumigatus conidia (1×10^7) by U937 cells (1×10^5) was performed as above described above.

Molecule	competition of murine SAP binding to conidia (A. fumigatus conidia)	CD11b internalization in neutrophils ([1]; Apcs−/− neutrophils)	phagocytosis by neutrophils ([1]; Apcs−/− whole blood)	CD11b internalization in neutrophils ([1]; wt neutrophils)	phagocytosis by neutrophils ([1]; wt whole blood)	SAP-mediated enhancement of phagocytosis, DC-SIGN transfected versus control cells (U937 cells)
B1	competed					
B2		restored CD11b internalization	rescued the defect	prompted it	potentiated phagocytosis	similar
